# Test results published in paper PMC6288289.
# Target: HAF protein (trimeric recombinant H5N1 hemagglutinin ectodomain with the bacteriophage T4 fibritin fold on trimerization sequence) (influenza A virus A/Anhui/1/2005 (H5N1) | bacteriophage T4)
# Assay: SEC; […], running buffer pH 8.0 ([…]
substance,measurement,value
HAF protein (trimeric recombinant H5N1 hemagglutinin ectodomain with the bacteriophage T4 fibritin fold on trimerization sequence),stoichiometry N,3
